Biological target: Apolipoprotein E receptor-2 (Apoer2) (human) (UniProt Q14114)
Experiment: cell-based or functional assay

Sequence of UniProt Q14114 (Q14114 33-963): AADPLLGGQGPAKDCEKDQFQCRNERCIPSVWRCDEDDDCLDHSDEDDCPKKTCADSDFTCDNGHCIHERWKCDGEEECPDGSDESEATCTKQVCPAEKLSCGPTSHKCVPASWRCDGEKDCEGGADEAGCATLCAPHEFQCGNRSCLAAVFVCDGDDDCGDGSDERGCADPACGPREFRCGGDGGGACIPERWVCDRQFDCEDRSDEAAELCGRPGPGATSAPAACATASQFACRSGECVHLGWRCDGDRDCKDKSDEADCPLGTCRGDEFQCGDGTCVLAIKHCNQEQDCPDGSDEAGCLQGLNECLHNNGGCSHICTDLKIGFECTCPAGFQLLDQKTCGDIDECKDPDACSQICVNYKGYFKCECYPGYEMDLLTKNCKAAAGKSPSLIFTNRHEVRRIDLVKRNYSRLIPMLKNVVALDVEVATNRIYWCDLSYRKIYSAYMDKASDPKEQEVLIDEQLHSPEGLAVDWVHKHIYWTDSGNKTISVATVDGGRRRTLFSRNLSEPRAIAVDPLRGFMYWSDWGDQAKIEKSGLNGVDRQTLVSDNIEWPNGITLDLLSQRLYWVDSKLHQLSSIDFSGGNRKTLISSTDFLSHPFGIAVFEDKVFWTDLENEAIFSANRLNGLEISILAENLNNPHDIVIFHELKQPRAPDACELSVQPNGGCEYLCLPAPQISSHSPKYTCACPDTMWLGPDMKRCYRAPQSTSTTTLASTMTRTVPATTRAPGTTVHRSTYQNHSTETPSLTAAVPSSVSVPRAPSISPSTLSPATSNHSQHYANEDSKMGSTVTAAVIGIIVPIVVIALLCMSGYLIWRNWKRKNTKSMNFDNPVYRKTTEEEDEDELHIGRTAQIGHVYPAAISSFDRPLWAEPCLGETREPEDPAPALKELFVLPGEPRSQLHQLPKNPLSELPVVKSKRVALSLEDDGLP

U937 monocyte adhesion to HAEC monolayers: > 2 fold
Substance: Recombinant Reelin (ligand)

From patent publication US20230123187A1
